The target of test [1] is His-tagged kelch BTB domain (his:BTB) (Drosophila). In words: dynamic light scattering.
Test [2] shares this target. In words: SEC.
Test [3] addresses His-tagged kelch BTBIVR (his:BTBIVR) (Drosophila). The test can be described thus: SEC. A general note: SEC sorts molecules by how far they enter the pores of the column.

“And” between values parts separate entries of the source, which are not always exact repeats. Equal values may be shown once.

Turning to “His-tagged kelch BTB domain (his:BTB) (domain or fragment)”, the stoichiometry N – broadly, a count of units in the complex or per binding partner – in test [1] was 2; in test [2], 2 and 4.
In the case of “His-tagged kelch BTBIVR (his:BTBIVR) (domain or fragment)”, the stoichiometry N in test [3] came out at 2.

The record behind these values is article PMC2138045.
